Broadly, the EC50 is the midpoint of the concentration-response curve. A lower EC50 goes with higher potency in that assay. By Kd is commonly meant the constant that tells how readily two partners part at equilibrium.

Experiment [1] has as its target T1, IgE-Fc-B-cell receptor construct (3×FLAG tag-Cε2-Cε3-Cε4-EMPD-transmembrane-intracellular domain) on Edox … (Homo sapiens, UniProt P01854, strain).
T1 construct: Species is said only of the EMPD in general ('human EMPD'); also called EMPD-containing Fcε construct; Fcε; not shown: 3×FLAG, N-terminal, kept
As to the kind of experiment: flow cytometry on cells; doxycycline-induced Edox cells, antibodies in graded concentrations, 30 min on ice in 2% BSA-PBS; detection with anti-human kappa light chain-FITC. To be noted: one partner purified.
Target sequence in this assay (P01854 429-546, change not shown): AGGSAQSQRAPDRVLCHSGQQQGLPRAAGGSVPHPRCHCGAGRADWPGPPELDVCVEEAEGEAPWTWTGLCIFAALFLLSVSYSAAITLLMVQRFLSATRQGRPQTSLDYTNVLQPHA

Experiment [2] has as its target T1, IgE-Fc-B-cell receptor construct …. Kind of experiment: cell-based or functional assay.
Target sequence in this assay (P01854 whole entry, looked up, change not shown, the tested form may be a part): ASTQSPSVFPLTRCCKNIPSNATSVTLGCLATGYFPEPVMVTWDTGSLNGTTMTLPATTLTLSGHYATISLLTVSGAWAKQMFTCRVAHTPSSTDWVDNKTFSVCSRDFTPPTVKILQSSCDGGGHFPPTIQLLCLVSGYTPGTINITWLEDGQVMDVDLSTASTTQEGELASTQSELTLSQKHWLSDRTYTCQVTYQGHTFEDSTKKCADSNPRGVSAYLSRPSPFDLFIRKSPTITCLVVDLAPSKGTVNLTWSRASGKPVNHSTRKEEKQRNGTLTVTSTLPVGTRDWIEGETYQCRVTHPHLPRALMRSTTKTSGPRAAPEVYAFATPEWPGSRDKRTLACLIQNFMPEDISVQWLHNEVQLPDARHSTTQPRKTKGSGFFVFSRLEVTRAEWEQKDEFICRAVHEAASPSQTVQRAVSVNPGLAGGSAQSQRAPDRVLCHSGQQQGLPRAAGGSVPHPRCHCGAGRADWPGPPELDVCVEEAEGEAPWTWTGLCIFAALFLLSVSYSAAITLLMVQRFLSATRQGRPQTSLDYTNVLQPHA
The target in experiment [3] is T2, biotinylated EMPD-characteristic peptide (Homo sapiens, synthetic peptide of the …, biotin on the C-terminal lysine (K-biotin)).
T2 construct: added C-terminal lysine that carries the biotin; Held on streptavidin sensors or plates through the biotin; also called synthetic peptide ligand representing a section of the human EMPD; model peptide; source: synthetic peptide; bought: Fisher Scientific
T2 chain: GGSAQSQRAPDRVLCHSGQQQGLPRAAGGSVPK
As to the kind of experiment: BLI; biotinylated EMPD peptide on streptavidin sensors (5 µg/mL); antibodies in two-fold dilutions from 250 nM; PBS with 1× Kinetics buffer, 25 °C; steady state value. The conditions noted are these: both partners purified.

Experiment [4] concerns the target T2, biotinylated EMPD-characteristic peptide. As to the kind of experiment: ELISA; biotinylated EMPD peptide on streptavidin plate (30 nM); antibodies in 3-fold dilutions from 45 nM in 2% BSA-PBS, RT; detection with anti-human kappa chain-HRP. To be noted: both partners purified. For orientation: ELISA stands for enzyme-linked immunosorbent assay.

B1: ligelizumab (antibody, V domains shown)
VH: QVQLVQSGAEVMKPGSSVKVSCKASGYTFSWYWLEWVRQAPGHGLEWMGEIDPGTFTTNYNEKFKARVTFTADTSTSTAYMELSSLRSEDTAVYYCARFSHFSGSNYDYFDYWGQGTLVTVSS
VL: EIVMTQSPATLSVSPGERATLSCRASQSIGTNIHWYQQKPGQAPRLLIYYASESISGIPARFSGSGSGTEFTLTISSLQSEDFAVYYCQQSWSWPTTFGGGTKVEIK
notes: whole heavy chain, IgG1 format; whole light chain; IgG1; made in house; source: HEK293-6E, transfected, purified from supernatant (Protein A)
Molecule B1 showed an EC50 in experiment [1] of around 0.1 nM. In experiment [2], the “decrease of surface Fcε (anti-FLAG staining, flow cytometry) on Edox cells after 4 h at 37 °C against incubation on ice” value (from here on “decrease of surface Fcε”) is above 80%.

B2: quilizumab (antibody, V domains shown)
VH: EVQLVESGGGLVQPGGSLRLSCAASGFTFSDYGIAWVRQAPGKGLEWVAFISDLAYTIYYADTVTGRFTISRDNSKNTLYLQMNSLRAEDTAVYYCARDNWDAMDYWGQGTLVTVSS
VL: DIQMTQSPSSLSASVGDRVTITCRSSQSLVHNNANTYLHWYQQKPGKAPKLLIYKVSNRFSGVPSRFSGSGSGTDFTLTISSLQPEDFATYYCSQNTLVPWTFGQGTKVEIK
Consider B2, for which, in experiment [2], the “decrease of surface Fcε” value is around 70%.

B3: 15cl12, chimeric antibody with human constant domains (antibody, V domains shown)
VH: QIQLQQSGAELVKPGASVKLSCKASGYTFTSYDINWVRQRPERGLDWIGWIFPGDGSSKYNENFKGKATLTTDKSSNTAYIHLSRLTSEDSAVYFCARWGKTFDYWGQGTTLTVSS
VL: DIVMSQSPSSLAVSVGEKVTMSCKSSQSLLYSRDQKNYLAWFQQKPGQSPKLLIYWASARESGVPDRFTGSGSGTDFTLTITSLKTEDLAVYYCQQFYNYPRTFGGGTKLEIK
Consider B3, for which the EC50 in experiment [1] came out at 4 nM. Besides, the “decrease of surface Fcε” value in experiment [2] was above 80%. Further, the Kd in experiment [3] worked out at 11 nM.

B4: 15cl12_L328C coupled with MC-Val-Cit-PAB-MMAE (antibody-drug conjugate) (antibody, V domains shown)
VH: B3 VH
VL: B3 VL
As to B4, the concentration giving a half-maximal response (EC50) in experiment [1] was around 8 nM; in experiment [4] it was 0.23 nM. In experiment [3], this molecule yielded a Kd of 7.5 nM.
